Experiments:
[1] = molecular target: VT2, VT2vx1 of E. coli 0157:H7 TK40 (E. coli); assay: cell-based or functional assay
[2] = molecular target: T1, E. coli Verotoxin II (VT2) (E. coli, UniProt P09385 23-319; P09386 20-89)
T1 sequence 1: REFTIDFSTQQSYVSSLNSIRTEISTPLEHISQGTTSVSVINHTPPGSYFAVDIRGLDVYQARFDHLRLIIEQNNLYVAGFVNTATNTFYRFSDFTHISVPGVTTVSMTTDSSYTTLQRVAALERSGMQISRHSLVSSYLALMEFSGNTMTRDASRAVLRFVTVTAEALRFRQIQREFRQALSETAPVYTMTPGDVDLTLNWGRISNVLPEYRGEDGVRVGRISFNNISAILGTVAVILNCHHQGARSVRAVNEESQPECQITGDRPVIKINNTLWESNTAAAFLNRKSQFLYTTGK
T1 sequence 2: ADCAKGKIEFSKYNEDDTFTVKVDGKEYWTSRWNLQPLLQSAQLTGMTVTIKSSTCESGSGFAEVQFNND

[3] = molecular target: T1, E. coli Verotoxin II (VT2); assay: BIAcore (SPR)

B1: humanized VTm1.1 antibody (HuVTm1.1) (antibody, V domains shown)
VH: EVQLVESGGGLVQPGGSLRLSCAASGFTFSSYGMSWVRQAPGKGLEWVATISTGGSYTYYPDSVKGRFTISRDNSKNTLYLQMNSLRAEDTAVYYCARRGDAWGNLDYWGQGTLVTVSS
VL: EIVLTQSPATLSVSPGERATLSCRASQTISNNLHWYQQKPGQAPRLLIKSASQSISGIPARFSGSGSGTDFTLTISSLESEDFAVYYCQQSYSWPLTFGQGTKVEIK
B1 was tested, and the ED50 (µg/ml), in vitro neutralizing assay [1] was 0.35 µg/mL, the “factor of difference in competition compared to the mouse antibody” value [2] was no more than 2 fold and the Kd [3] was 3.6 nM. It also gave a koff [3] of 0.00034 s⁻¹ and a kon [3] of 95000 M⁻¹ s⁻¹.

— patent US7846435 (TEIJIN, dated 2010)
